Drawing on publication PMC13376213, “Systematic discovery of motif-based interactions of the auxiliary domains of USP family deubiquitinases” (Nature Communications, 2026), this text covers log2_FC for five molecules.

One test concerns FLAG-USP33. As to the kind of experiment: IP-MS of FLAG-USP33 and variants vs empty vector. Type of test: cell-based, human. The protocol: For transfection, 1x10^6 HEK293 cells were seeded in 10 cm dishes with DMEM, 10% FBS, 1% L-G (without antibiotic) medium, incubated at 37 °C, with 5 % CO2 for 24 h. Cells were transfected with a transfection mix containing […] of Opti-MEM (Thermo Fisher Scientific), 20 μL of PEI stock (1 mg/mL) and […] of the desired cDNA. For co-transfection, 2.5 μg of DNA of each plasmid was used. The mix was vortexed for 15 s and incubated at room temperature for 15–20 min. The transfection mix was added to the dish and gently mixed. Plates were incubated at 37 °C for 36–48 h before harvesting. For USP33 constructs, 5 μM Bortezomib (proteasome inhibitor) was added 4 hours before harvesting the cells.
FLAG fusion proteins were immunoprecipitated from HEK293 cells transfected with plasmids encoding the protein of interest using the anti-FLAG M2 affinity gel from Sigma-Aldrich. Cell pellets were lysed with 100–200 μL/per dish lysis buffer (Pierce RIPA buffer, 1X protease inhibitor (Roche), 50 unit/μL of Benzonase Nuclease) rotating at 4 °C for 30–45 min. […] The cell lysate was clarified by centrifugation at 17,000 x g, at 4 °C for 12 min, and the supernatant was transferred to a clean, pre-chilled low-binding Eppendorf tube. […] The IP samples were centrifuged at 6500 x g at 4 °C for 30 s. The supernatant containing the unbound proteins was transferred to a clean tube. The resin was washed three times with 500 μL of TBS, centrifuged at 6500 x g at 4 °C for 30 s. The bound FLAG fusion protein was eluted with 100 μL of 150 ng/μL 3X FLAG peptide (Sigma) in TBS and incubated in the cold room for 1 h or overnight. The tube was centrifuged at 6500 x g at 4 °C for 30 s; the eluted proteins were transferred to a clean tube. The eluted proteins were prepared for analysis by western blot or Mass Spectrometry.
Immunoprecipitation (IP) was carried out as described above; four technical replicates of each IP condition were performed, and the empty vector was used as a negative control. The eluted protein was processed following the Strap-micro protocol (Protifi). The IP elution containing 1–100 μg protein was 1:1 mixed with 2X lysis buffer (10% SDS, 100 mM TEAB pH 8.5). […] Samples were vortexed, mixed with 165 μL of 100 mM TEAB in 90% methanol, and passed through an S-Trap micro column at 4000 g for 30 s to trap the proteins. The column was washed with 150 μL of 100 mM TEAB in 90% methanol (at 4,000 x g for 30 seconds) three times. The S-Trap column was centrifuged again and transferred to a clean 2 mL tube for digestion with 20 μL of digestion buffer (1 μg trypsin per 10 μg sample in 50 mM TEAB), at 37 °C overnight in a thermomixer without shaking. The digested peptides were eluted with […] of 50 mM TEAB in water, […] of 0.2 % formic acid in water, and […] of 50 % acetonitrile in water, centrifuging at 4000 x g for 1 min each time. The three elutions were pooled in a low-binding tube, placed on dry ice until frozen, dried in a SpeedVac vacuum (Thermo Scientific), and proceeded with the LCMS analysis.
Eluted peptides were resuspended in water supplemented with 0.015% dodecyl maltoside and 0.1% formic acid and were injected on a Vanquish Neo UHPLC System operating in trap and elute mode coupled to an Orbitrap Astral Mass Spectrometer (Thermo Fisher Scientific). […] Eluted peptides were analyzed using data-independent acquisition mode on the mass spectrometer.
Peptides were searched against the Uniprot Swissprot Human database (released on 02/01/2023) supplemented with the USP20 and USP33 mutants using DiaNN (v1.9.0)[62] operating in library-free mode. Data filtering and statistical analysis were carried out in Python (v3.9.0) using the packages pandas, numpy, sklearn, scipy, rpy2, Plotnine, and Plotly and R (v4.4.3) using the package limma.
Protein groups identified with a single peptide or quantified in fewer than three replicates in at least 1 condition were filtered out. […]

The test system of the next test is FLAG-USP20. As to the kind of experiment: IP-MS of FLAG-USP20 and variants vs empty vector. Format: cell-based, human.
Setting [1] is: IP-MS, FLAG-USP33-ΔDUSP2 vs EV, comparison bh_2 Sample_Limma_ImpMedInt_USP33_DUSP2_domain/EV.
Where [2] appears, read: IP-MS, FLAG-USP33-ΔUBP vs EV, comparison bh_2 Sample_Limma_ImpMedInt_USP33_UBP_domain/EV.
Setting [3] is: IP-MS, FLAG-USP33 UBP mutant vs EV, comparison USP33_E86K_D90R/EV, Limma.
The mark [4] stands for this setting: IP-MS, FLAG-USP20-ΔUBP vs EV, comparison bh_2 Sample_Limma_ImpMedInt_USP20_UBP_domain/EV.
The mark [5] stands for this setting: IP-MS, FLAG-USP20 vs EV, comparison USP20_wt/EV, Limma.
[6] abbreviates: Table S7b USP20 MS_and_motif, bait USP20.

B1: TMEM223 (protein, UniProt A0PJW6 1-202, looked up)
Transmembrane protein 223: MAAPWRRWPTGLLAVLRPLLTCRPLQGTTLQRDVLLFEHDRGRFFTILGLFCAGQGVFWASMAVAAVSRPPVPVQPLDAEVPNRGPFDLRSALWRYGLAVGCGAIGALVLGAGLLFSLRSVRSVVLRAGGQQVTLTTHAPFGLGAHFTVPLKQVSCMAHRGEVPAMLPLKVKGRRFYFLLDKTGHFPNTKLFDNTVGAYRSL
For the molecule B1, the log2_FC worked out at 4.626 in the test with FLAG-USP33 (setting [1]); 4.59 with FLAG-USP33 (setting [2]); 4.422 in the test with FLAG-USP33 (setting [3]); 4.38 with FLAG-USP33 (IP-MS, FLAG-USP33 vs EV, comparison USP33_wt/EV, Limma); 4.38 in the test with FLAG-USP33 (Table S7c USP33 MS_and_motif, bait USP33); 4.865 with FLAG-USP20 (setting [4]). In addition, the log2_FC in the test on FLAG-USP20 (setting [5]) and in the test on FLAG-USP20 (setting [6]) was 4.082 throughout.

B2: GTPBP10 (protein, UniProt A4D1E9 1-387, looked up)
GTP-binding protein 10: MVHCSCVLFRKYGNFIDKLRLFTRGGSGGMGYPRLGGEGGKGGDVWVVAQNRMTLKQLKDRYPRKRFVAGVGANSKISALKGSKGKDCEIPVPVGISVTDENGKIIGELNKENDRILVAQGGLGGKLLTNFLPLKGQKRIIHLDLKLIADVGLVGFPNAGKSSLLSCVSHAKPAIADYAFTTLKPELGKIMYSDFKQISVADLPGLIEGAHMNKGMGHKFLKHIERTRQLLFVVDISGFQLSSHTQYRTAFETIILLTKELELYKEELQTKPALLAVNKMDLPDAQDKFHELMSQLQNPKDFLHLFEKNMIPERTVEFQHIIPISAVTGEGIEELKNCIRKSLDEQANQENDALHKKQLLNLWISDTMSSTEPPSKHAVTTSKMDII
B2 came in with a log2_FC in the test on FLAG-USP33 (setting [2]) of 2.53.

B3: BLTP3B (protein, UniProt A0JNW5 1-1464, looked up)
Bridge-like lipid transfer …: MAGIIKKQILKHLSRFTKNLSPDKINLSTLKGEGELKNLELDEEVLQNMLDLPTWLAINKVFCNKASIRIPWTKLKTHPICLSLDKVIMEMSTCEEPRSPNGPSPIATASGQSEYGFAEKVVEGISVSVNSIVIRIGAKAFNASFELSQLRIYSVNAHWEHGDLRFTRIQDPQRGEVLTFKEINWQMIRIEADATQSSHLEIMCAPVRLITNQSKIRVTLKRRLKDCNVIATKLVLILDDLLWVLTDSQLKAMVQYAKSLSEAIEKSTEQRKSMAPEPTQSSTVVASAQQVKTTQTSNAPDVNDAIVKLFNDFDVKETSHHLVISHLDLHICDDIHAKEKESNRRITGGAMQLSFTQLTIDYYPYHKAGDSCNHWMYFSDATKTKNGWANELLHEFECNVEMLKQAVKDHNVGSPPKSPTHASPQHTQTEKDYPLKGTCRTPSVLSQQSKAKLMSSSVVVRLADFNIYQVSTAEQCRSSPKSMICCNKKSLYLPQEMSAVYIEFTEYYYPDGKDFPIPSPNLYSQLNALQFTVDERSILWLNQFLLDLKQSLNQFMAVYKLNDNSKSDEHVDVRVDGLMLKFVIPSEVKSECHQDQPRAISIQSSEMIATNTRHCPNCRHSDLEALFQDFKDCDFFSKTYTSFPKSCDNFNLLHPIFQRHAHEQDTKMHEIYKGNITPQLNKNTLKTSAATDVWAVYFSQFWIDYEGMKSGKGRPISFVDSFPLSIWICQPTRYAESQKEPQTCNQVSLNTSQSESSDLAGRLKRKKLLKEYYSTESEPLTNGGQKPSSSDTFFRFSPSSSEADIHLLVHVHKHVSMQINHYQYLLLLFLHESLILLSENLRKDVEAVTGSPASQTSICIGILLRSAELALLLHPVDQANTLKSPVSESVSPVVPDYLPTENGDFLSSKRKQISRDINRIRSVTVNHMSDNRSMSVDLSHIPLKDPLLFKSASDTNLQKGISFMDYLSDKHLGKISEDESSGLVYKSGSGEIGSETSDKKDSFYTDSSSILNYREDSNILSFDSDGNQNILSSTLTSKGNETIESIFKAEDLLPEAASLSENLDISKEETPPVRTLKSQSSLSGKPKERCPPNLAPLCVSYKNMKRSSSQMSLDTISLDSMILEEQLLESDGSDSHMFLEKGNKKNSTTNYRGTAESVNAGANLQNYGETSPDAISTNSEGAQENHDDLMSVVVFKITGVNGEIDIRGEDTEICLQVNQVTPDQLGNISLRHYLCNRPVGSDQKAVIHSKSSPEISLRFESGPGAVIHSLLAEKNGFLQCHIENFSTEFLTSSLMNIQHFLEDETVATVMPMKIQVSNTKINLKDDSPRSSTVSLEPAPVTVHIDHLVVERSDDGSFHIRDSHMLNTGNDLKENVKSDSVLLTSGKYDLKKQRSVTQATQTSPGVPWPSQSANFPEFSFDFTREQLMEENESLKQELAKAKMALAEAHLEKDALLHHIKKMTVE
Turning to B3, the log2_FC in the test on FLAG-USP33 (setting [3]) stood at 2.646.

B4: IFT56 (protein, UniProt A0AVF1 1-554, looked up)
Intraflagellar transport …: MMLSRAKPAVGRGVQHTDKRKKKGRKIPKLEELLSKRDFTGAITLLEFKRHVGEEEEDTNLWIGYCAFHLGDYKRALEEYENATKEENCNSEVWVNLACTYFFLGMYKQAEAAGFKASKSRLQNRLLFHLAHKFNDEKKLMSFHQNLQDVTEDQLSLASIHYMRSHYQEAIDIYKRILLDNREYLALNVYVALCYYKLDYYDVSQEVLAVYLQQIPDSTIALNLKACNHFRLYNGRAAEAELKSLMDNASSSFEFAKELIRHNLVVFRGGEGALQVLPPLVDVIPEARLNLVIYYLRQDDVQEAYNLIKDLEPTTPQEYILKGVVNAALGQEMGSRDHMKIAQQFFQLVGGSASECDTIPGRQCMASCFFLLKQFDDVLIYLNSFKSYFYNDDIFNFNYAQAKAATGNTSEGEEAFLLIQSEKMKNDYIYLSWLARCYIMNKKPRLAWELYLKMETSGESFSLLQLIANDCYKMGQFYYSAKAFDVLERLDPNPEYWEGKRGACVGIFQMIIAGREPKETLREVLHLLRSTGNTQVEYMIRIMKKWAKENRVSI
Regarding B4, the log2_FC in the test with FLAG-USP33 (setting [1]) stood at 3.226; with FLAG-USP33 (setting [2]), 2.888.

B5: BCLAF3 (protein, UniProt A2AJT9 1-711, looked up)
BCLAF1 and THRAP3 family …: MARSRSRSPRWKHRSLSPVPRNAEHYKQRHSHGHYGCEYRKDPKRPVAWRMDSEKHGQSKPRIPSRGNIYYQSYEHRSPSPNIRNSLENVYMYKPHRGYSPGRGDSNRRAQYMPKYSEGIPYKEHERNSYPQKVQGGHSPDDHRVRGSGKGGKPPQRSIADSFRFEGKWHEDELRHQRIQEEKYSQSTRRGSEDFETRSSFQKRYPEDRDFRKYGHTSKRPKDVERYESREPARNPKWKPEHSLPPYQEDTDQWNLGPQTYRHAEREHPETSSATKVSYDYRHKRPKLLDGDQDFSDGRTQKYCKEEDRKYSFQKGPLNRELDCFNTGRGRETQDGQVKEPFKPSKKDSIACTYSNKNDVDLRSSNDKWKEKIKKEGDCRKESNSSSNQLDKSQKLPDVKPSPINLRKKSLTVKVDVKKTVDTFRVASSYSTERQMSHDLVAVGRKSENFHPVFEHLDSTQNTENKPTGEFAQEIITIIHQVKANYFPSPGITLHERFSTMQDIHKADVNEIPLNSDPEIHRRIDMSLAELQSKQAVIYESEQTLIKIIDPNDLRHDIERRRKERLQNEDEHIFHIASAAERDDQNSSFSKVKNVHTDGFQKPTHFIKSNFRKCIEKPYMNYTTQRKDIITHKPFEVEGNHRNTRVRPFKSNFRGGRCQPNYKSGLVQKSLYIQAKYQRLRFTGPRGFITHKFRERLMRKKKEYTDVATGI
For the molecule B5, the log2_FC with FLAG-USP33 (setting [3]) is 4.934; with FLAG-USP20 (setting [4]), 4.725; in the test on FLAG-USP20 (setting [5]), 4.955; in the test with FLAG-USP20 (setting [6]), 4.955.
